Among the data in the NTF2 design screens of Basanta et al. (2020) are protease stability score values, retold here.

The data set in a line: protease stability score; higher = more stable; yeast display proteolysis, trypsin and chymotrypsin.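 Further: relative to predicted unfolded state with 0 unfolded-like and 1 meaning tenfold more protease.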
“DKEDREAHFLARLFLKIEETGDEETMHKYFDPHVRWIQGDWHMHGREDIIEFVRHMGVTIQMHDHEDIKVFDGRVQIKGHKRVNINGKQFEISVRIDINVINGRIRKVQIDEK” registered a protease stability score of 1.32.

On to “DKEEDEFRKAFEIVRHTWKTGDEHLLEKLMDPDARMDVNGVHNHGREEATKTVFEIVEKIKNARLEFKRIEVYDGRIFFHMDWDVNGVRVFVLIISIKVDGRWRHKSYSEDRV”, for which the protease stability score was 0.856.

For the sequence “DKEEEDSDEALKWFFDVLRTGDERLIREMLDPDARIEIDGVPSHGRESVEEFVHRIRNMKVDDFQVKRIDVQGDKVRLDTHFDGTINGVRRQVDLTIIARKINGRWFNESISIK”, the protease stability score is 1.91.

The sequence “DKEEEDVKKFTDEFIHHYLTGDWEKIRELADPNVRLIVGDKTLHGRELFIDWLRDELRRIDHIEHHVHRMSVINGKVHIDAELRIYINGRLHQTRIEIHLVIIDGRMRMVELRFR” yielded a protease stability score of 2.13.

Sequence “DKEEEEVREALRILLEEWHTGDFDRILDLFDPNDRMHIGDKDLHGRHIMEHFYDHMIKRVKNMRIELTDVRFQGDKVWFHVKEHFDGRTISSEIVLVKINGKWRIETIFII” came in with a protease stability score of 1.46.

“DKEEEHMREMVRLYQHIRLTGNEEVIRNLADPTMRFDLDFEEKRVTAIGREQYLRVTDKLKKDLGLENIEVRVKEMEAFDGVIHINGHERFNGRSYDTHIWLVIVNGRWEFIRIEIR”: the protease stability score turned out to be 0.116.

In turn, “DKEEEKSREFFRIFYELWLTGNEELNERLADPNVYVDINGQEIHGMHVAKNVLTRELEELRVKDIKIDDYKTQGEKAVFHGKWEGYVDGRDSMEHVTVILTVVDGKVDNMSIKFD” yielded a protease stability score of 0.97.

“DKEEELIRELMEQFTHWLITGNWKKIVDMADPNVQILYNGQEFHGREELHKALQELLEKLGFKHIEIRRKHVVDGRVHLDGRSIINGRRFEVEYISVIINGVIKEIELRVE” yielded a protease stability score of 1.95.

The sequence “DKEEELMKTFSQLFEHWVETGDETEMLQNADPHAKSRFNGREIHGREDIVELLKRIIDQADHHEVHTDKVKVVGDKIHINSSFHIHIGEFTIRLHYELIVDKINGRWILKEVRLG” came in with a protease stability score of 0.927.

On to “DKEEELSEIAHKIWIHELHTGDFESLEKNMDPHARIIQGDWHYHGRESVYHVFSRIVRMLGVKHIEIHSMEVINGQVHLDTRLHAEGHSRNTHVFFVKINGRWLSKEFEIK”, for which the protease stability score is 0.711.

Regarding “DKEEELVKKFLELWLHALRTGDEDFIRELFDPHARFVFDGRDFHGMEEFIRIMRHIRFHHIHLHHFDLQGDYVRLDTRVDGNVDGKRVTINTHMIMHKVNGRWVLESYTID”, the protease stability score was 0.839.

“DKEEEMVRHTATRFLHLLLTGDEEIITHLADPNMRIEVGDKESHGREHFADVIKEFSDHMRIKEWHIEVNEVVNGRILFDIHVDGIIGDKEDRIRFHLDIVVVNGKIKHVRIKIK” gave a protease stability score of 1.15.

For the sequence “DKEEHDMKRLADLMKRIFETGDWEEFWSLVDPNVRLHWIVNGREYEVIGRENASEMIEITLELLGVDHVEIHDIDVQGDKVHMKTRSIVNGREIDDNYHYIIVDGRLRRVEIKLK”, the protease stability score came out at 1.81.

Regarding “DKEEHDVHNMWQHLVEVLLTGNEEAIHENLDPDAKLEVGDKRYHGRELVSEVWSRLGINVIQLDDMRPIGNKVHVETTTHFNGKTLEMRIDAHKVNGRWLSESLIIR”, the protease stability score stood at 0.951.

In the case of “DKEEHLVKILIEILHREWETGDEDSISRNADPNTRVDIGDKHFHGREDAMEVLKRMLHQFPNIKFHIEDMRIIGNFVEIDVVINWNGKDVKSHLVFFKINGRWLTRHVEIR”, the protease stability score came to 1.32.

“DKEEKEAREWSKRFLHLFLTGNEEEFKRLMDPHTQSMLLIDGKRDTHHGRDEATKLLSDWLNHMRLRELRVHDIKVQGDKATLDIRLNVEFNGVELERTSEIIIVVFDGRIKSVIFRIE”: the protease stability score came out at 1.55.

On to “DKEEKELEELVKLMVELSDTGDWKTFYQLADPHTKLHNLVDGKWDEQHGRENFVEVERKLRERFKGLRVERHDISVQGNKVHVDVILHVNGREMEIDEVFVIINGKLESVEIHVR”, for which the protease stability score turned out to be 1.19.

On to “DKEERYLEIAVNVIRHQLETGNEEDLLRNIDPDTRLFIDGRLFHGWETAHYLLRKVKNARIEIRSVHLIGDKIHMDTELIVNGVLRETEITARKVDGQWTWHHIRIE”, for which the protease stability score was 1.39.

Sequence “DKEEVEKIAREALEAAVKGDEDKLKTYLGPDVKYVLGDQEYQGQQVAELVMKLIKKDGARLQLETLKVEGNTVQAQYQFHVDGVTRKAHITMKVKGGRVDEWQVHIDDHAKEALKKG” came in with a protease stability score of 1.89.

For the sequence “DKEFEDVIRMAEHEMKLMETGDWKTHEHLADPNYRVDINGREHIGWDHFVRWLFHMRIHRIEIKEVRVQGEKATLRLKVDGEQGDKRFKTDIEFSLLIVDGRIKEIHIILH”, the protease stability score worked out at 1.36.

Regarding “DKEHKESTKATHDVLRSWKTGDERFREELADPNARMEFNGREHVGREFMSELLRHLWEELGVDHMELKRVIIQGDKIHIDMDLTVGDKSIHLHVTVQKINGKWIIKSIRLELT”, the protease stability score is -0.192.

Sequence “DKEKEDAVRIVEHWIEALLTGDEHELKKYLDPEVRVEINGRDIHGMHLWSEHFKELRHEELHIHIRTVHVFDGKMSVEGELRIVGEVDGRRTDIIYHTEIEIEKVDGRWHIHHIHLR” returned a protease stability score of -0.195.

In the case of “DKEKEDLKKLSDWWLHAIETGDFETIFRLLDPHVRIEINIGDKTHSIHGREEFYKWLHRVKNLQMTIHHSEPIGDKIRLHGFFVIDGVHHDTRHELYFIDGRLHEVHIHVI”, the protease stability score is 2.21.

“DKELHIAYHLLKVFEHTLATGDEETSERLLDPDVRFWINGVDFHGWELFSTFMKHARFSFRDSRFHDNRLVNGQINLVGRVRLEIDVDGRRHHTETDVRVVILKVDGRWVIHSMEFK”: the protease stability score amounted to 1.46.

In the case of “DKENHLMRELTRLIVDYINTGDWKEFRKLADPHVRIVIEVGDKRIERHGMEDWLKLVRDRLEEIRTHIEVHDVEAQGDKAHLDGRIRLIVGEFEIVIESRIKVVSIDGKLKEISVHMV”, the protease stability score came to 1.48.

“DKEREHLKQLAEIIIHLWHTGDEEILMHLADPNTRLIIEWNGQESQYHGREEMYTIIRRIYEELGADHIHIEDHDVQGDKVIIHSRLEQGDKRVELHLIVVFVNGRLKEMHIHINDK” came in with a protease stability score of 2.34.

As to “DKETKDSEKMSRMYFEYLLTGDFEKLLEMADPDVRFEFNGKEYIGMHETIEILERIWKDLGIKHSELKKVELQGEKAIIDGRIKYGDKEVNVKIILLVWNGKMREQRIHYQ”, the protease stability score turned out to be 1.1.

Sequence “DKFERDLEEALREVLEALETGDEDRLLNLFDPHARIDIDGRDLHGWEDLTRELREIRIRHIHLHDRRIQGEWIHFDTITDGEFNGQRTTVRTHILMLKFDGRWMIREVTFI” registered a protease stability score of 1.51.

In turn, “DKHEEALEIAIRLLELVWKTGDFEDFVRLLDPHTRFHYGDKDFIGMELWLRLHEHLGITQIEIRSTHHHRIHAQGDKVILDIEIEGIIGDKETRHRIKLVVVKVDGRWKIKEVHIR” had a protease stability score of 1.09.

With “DKIKHLEDEIEKIFFETIETGDEHLFNQLVDPNVRVRIGDKHSVGREHVERVEREHREHMGVDHVEIRIHDSRTFNGVIHIEGKLHYHVNGRRHEHRIHIFLVVWDGVVRHLEIEIR”, the protease stability score turned out to be 0.305.

Consider “DKKEKDAKEAFDWLVKHVRTGDETMLHELMDPDVKLEIGDKHIVGRENVVHVFSRLIERADHMEFILTDMKVYDGRVESDTILVLHIDGVEIRRKTKITVIKINGRWLLHTVHIE”, for which the protease stability score is 1.31.

Consider “DKKQVHDVARTLVQYYVSGNSERVKQLGKEDVELHAGDRTYHGVDQMAKVVEQFKKYGVELEVKDVKVDGNRVTARVQFHKAGTTWEFKVDVQADGGKVDQVRVNVTEEAIKHIQHG”, for which the protease stability score turned out to be 0.715.

In turn, “DKLDKLLREMLELFNHLLKTGDWDTITKLVDPNVRIDINGQELHGMELILEWWLRLGIRNEHERERDRDSQGEFMHVEGHRHIRINGQSTRFDTILHIEIIDGRIKDIKVNLI” yielded a protease stability score of 1.12.

In the case of “DKLEKWAEHMVHLIFRAFETGDWRMLSKYFDPDTRHHVGNFHLVGMEDFIKLARELSERLGMEIDRVHVRHFDTQGDKLTVEIIVHSRVGDKEETRETIILVSKYNGRWHLSSIEIK”, the protease stability score was determined as 1.39.

In turn, “DKLHHDARWMMERLYETLETGDFHSFLRLADPEVLLIINGQFLHGREEVERFYDEEREKFKGLTIKHLHIHRVEMQGDKVRVDSRIHHIINGVNVHNNVKLEFVAFDGRMHRLRIEEE” had a protease stability score of 1.24.

“DKQHEDIRRFMEEFLNAVTTGDEDVLSRLHDPHARFRLHQGEKHDEKHGRESWLKWMSEIRIHHIEIEHIDVQGDYTLMIVHSDGTIDGVRMEWESRIILYVYNGKLKEVEVRIH” gave a protease stability score of 0.691.

“DKRDEKMERFLRLMIEFYTTGNEDEFRKLADPDVRTIVGDKHAHGWEESEKVFRILIDHMRIRRIHIEHITVQGNWAHSITRLDGEVNGVRVHVRTEVVIIVYNGRVETIDLRWE”: the protease stability score worked out at 1.28.

The sequence “DKREEELHWAVELLIDIFRTGDERLLIELIDPHARSEVGDKTLHGRQHAEVEHRDWGLDRVETHIHDYKVQGNKLHLDMSTVVNGKDIKISFIAEKYNGRWHLKRIIIR” yielded a protease stability score of 1.27.

In the case of “DKREEEVHELIRELVESIITGDFRHFFKLLDPHARSEVGDKELHGREQISDWLLKHIRRVKNITFKEVHFHELRVIGDKVEFHFDIRGVINGQDTTLEVEMKARKIDGRWHVEEIRFI”, the protease stability score worked out at 1.28.

Consider “DKREEIAREIWKMFDDAVFTGNEETLERMADPNVRFIIGDKHLIGMRDEIHWLREIRVHIELSRIHDIHLQGDKIHIDSHNDIEIIINGQERRHETKYMIDIRKVNGRWIIERVEIR”, for which the protease stability score was determined as 0.818.

“DKREHDMERWFKLWWHTLMTGDEDLYHELLDPNARIVQGEKHHHGRENLVEYFTHLVEEMRIRHFHLHDMRFQGEKNDIDGHIDITINGQRHDTRFTIHLLIVNGKLRHVELRIL”: the protease stability score was 0.506.

For “DKRIEWYRHVMEVLFNILLTGNFEILEELLDPHVRIDINGKEYHGREQMIEAWETHLHELRIHDMRIKTIDHQGDKHILTTRVDIDIDGQNVEDRTHIELHIIDGRLKSIILRVS”, the protease stability score is 1.06.

“DKTEEDAKRWAEHFSHNMETGNEEKIIDLADPNTRLEVNGRHVHGREEFSRFWKELSDRVDHIRIQITRISIIGDKIRIDSRIFLHINGKEMIVESVLISEKVNGRWMMREIDIR” returned a protease stability score of 1.84.

The sequence “DKTTEEAERDAREVTRLHRTGDEEYLEKYFDPHVKLEFNGRDVHGMELASEILKKVRRDLGVDHIEVKHVELDVQGEWIHVHLNLRVFFDGRETRYEYNVHVRKIDGKWIIKHVIVRVS” returned a protease stability score of 1.34.

“DKVEDDLREFARLFVEYMETGDEDKVSKLMDPSMRIEIHINGKDIKYHGREELNRWRSEEMKRVDHEKWHHKHIRVIGDKVDIDFRRVEHVGDKHLVFQVHIELFVINGKLHTVIIRIE” displayed a protease stability score of 1.53.

In the case of “DLDNILMKLFLKEVEEVERTGDERLIHELADPNVRVEQGDKKFHGRHEAVRIYMELGIKHSRLTDVKFFEGHVLIHVRIHVDGRDIDLTIFMHKIDGRWIIKSMKQD”, the protease stability score is 1.16.

In turn, “DLDQELREKTIRIELKAWRTGDEDKIKELLDPNTRFIINGRHLIGREAIHILLEQIDHFKDLQPRHVDVINGVVRFDGHMEGTFNGVDQSTKVHIIAWKYNGRWFIESIIII” came in with a protease stability score of 1.59.
